From the nanobody polyreactivity screen of Harvey et al. (2022)

assay: yeast display, Sf9 membrane polyspecificity reagent, FACS + sequencing; frameworks hold sequencing errors
Method in brief: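 Nanobodies came from a synthetic yeast display library in Saccharomyces cerevisiae BJ5465, induced with galactose for 36–48 hours and stained for 1 hour at 4 °C with 10% biotinylated, detergent-solubilized Sf9 membrane reagent. Cells were enriched on streptavidin microbeads and then FACS-sorted, with low and high (top ~1%) gates set on anti-HA fluorescence for expression and streptavidin fluorescence for reagent binding. Each polyreactivity label reflects the gate a clone came from. Genes were amplified by colony PCR, sequenced by MiSeq 2 × 250 and filtered by CDR length.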

Sequence | polyreactivity (PSR sort gate)
QVQLVESGGGLVQAGGSLRLSCPASGRIIGGNAMGWYRQAPGKEREFVAAIRASGGSTHYADSVKGRFTISRDNAKNTVYLQMNSLKPEDTAVYDCNALSRNTHLYDYWGQGTQVTVSS | high polyreactivity
QVQLVESGGGLVQAGGSLRLSCPASGRIVANAMGWYIQAPGKERELVAAISSVGSTNYADSVKGRFTISRDNAKNTVYLQMNSLKPEDTAVYYCAARGYRWYIAVDFWGQGTQVTVSS | low polyreactivity
QVQLVESGGGLVQAGGSLRLSCPASGRIYGYYVMGWYRQAPGKERELVASITSGGSTYYADSVKRRFTISRDNAKYTVYFQMNSLKPEDTAVYDCAARRAWSWKIYDYWGQGTQVTVSS | high polyreactivity
QVQLVESGGGLVQAGGSLRLSCPASGRTFDYNAMGWYRQAPGKERELVAAITSSGGSTYYADSVKGRFTISRDNAKNTVYLQMNSLKPEDSAVYYCATDGQSPYYIYYWGQGTQVTVSS | low polyreactivity
QVQLVESGGGLVQAGGSLRLSCPASGRTFSSYAMGWYRPAPGKERELVAAISRRGGSTYYADSVKGRFTISRDNAKNTVYLKMNSLKPEDTAVYYCAADVYKQYGYYYWGQGSQVTVSS | high polyreactivity
QVQLVESGGGLVQAGGSLRLSCPASGRTMGGNAMGWYRQAPGKEREFVARISTRGVRKYYADSVKGRFTISRDNAKNTVYLQMNSLKPEDTAVYYCAKHVSYGHIGAYPDRDSWGQGTQVTVSS | low polyreactivity
QVQLVESGGGLVQAGGSLRLSCPASGSIFDFYAMGWYRQAPGKERELVAAIDDIDDSTYYADSVKGRFTISRDNAKNTVYLQMNSLKPEDTAVYDCAAELRPGYRSSYGLIYDYWGQGTQVTVSS | low polyreactivity
QVQLVESGGGLVQAGGSLRLSCPASGSIFRSYAMGWYRPAPGKERELVASISRRGGSSYYADSVKGRFTISRDNAKNTVYLQMNSLKPEDTAVYYCAAVRYNSRGSTTPSEMYYWGQGTQVTVSS | low polyreactivity
QVQLVESGGGLVQAGGSLRLSCPASGSIFSLNAMGWSRQAPGKERELVAASGGGSTYYADSVKGRFTISRDNAKNTVYLQMNSLKPEDTAVYYCAARVLTDELDYWGQGTQVTVSS | low polyreactivity
QVQLVESGGGLVQAGGSLRLSCPASGSIFYSYAMGWYRQAPGKERELVAAISWDASTYYADSVKGRFTISRDNAKNTVYLQMNSLKPEYTAVYYCNAVYRVWYAEWSTVGSPHDYWGQGTQVTVSS | low polyreactivity
QVQLVESGGGLVQAGGSLRLSCPASGSTFRYYAMAWYRQAPGKERELVAGISSSGGSTYYADSVKGRFTISRDNAKNTVYLQMNSLKPEDTAVYYCNAARGTSRSLAVFADYDYWGQGTQVTVSS | high polyreactivity
QVQLVESGGGLVQAGGSLRLSCPASGSTYLIYAMGWYRQAPGKERELVARITSTGSTYYADSVKRRFTISRDNAMNTVYLHMNSLKPEDTAVYYCNAAGYQYYWHYYWGQGTQVTVSS | low polyreactivity
QVQLVESGGGLVQAGGSLRLSCPATGSTFGSYAMAWYRPAPGKERELVADISSRGASTYYADSVKGRFTISRDNAKNTVYLQMNSLKPEDTAVYYCARDVYIWYGYGYFPEYEYWGQGTQVTVSS | low polyreactivity
QVQLVESGGGLVQAGGSLRLSCSASGFTFEEYAMGWYRQAPGKERELVAAIDYTVGSTYYADSVKGRFTISRDNAKNTVYLQINSLKPEDTAVYYCNVDLSYSFNSAYGYWGQGTQVSVSS | low polyreactivity
QVQLVESGGGLVQAGGSLRLSCSASGFTIYYYTMGWYRQAPGKERELVAAITRSGGRTYYADSVKGRFTISRDNSKNTVYLQMISLKPEDPAVYYCAASTYNNFWYLGYGYWGQGTQVTVSS | high polyreactivity
QVQLVESGGGLVQAGGSLRLSCSASGGTFRYYTMVWYRKAPGKERELVAAITRGGRTYYADSVKGRFTISRDNAKNTVYLQMNSLKPEDTAVYYCAAVRPRSPVSYENDYWGQGTQVTVSS | high polyreactivity
QVQLVESGGGLVQAGGSLRLSCSASGLIFRYYAMGWYRQAPGKEREFVAAISGRGASTYYADSVKGRFTISRDNSKNTVYLQMNSLKPEDTAVYYCATYFPSAVVAFHMEYWGQGTQVTVSS | low polyreactivity
QVQLVESGGGLVQAGGSLRLSCSASGLTLAPNAMGWYRQAPGKERELVAAITRSGGDTYYADSVKGRFTISRDNAKNTVYLQMNSLKPEDTAVYYCAADYWFRYGTYEYWGQGTQVTVSS | high polyreactivity
QVQLVESGGGLVQAGGSLRLSCSASGRTFKVYAMGWYRQAPGKERELVAAISYSGAGTRYADSVKGRFTISRDNAKNTVYLQMNSLKPEDTAVYYCNTDAWARVKRYEYWGQGTQVTVSS | low polyreactivity
QVQLVESGGGLVQAGGSLRLSCSASGRTFYSYAMGWYRQPRGKERELVATIRRGGRTNYADSVKGRFTISRDNAKNTVYLLMNSLKPEDTAVYYCAAEDYRSLVTSTYDYWGQGTQVAVSS | low polyreactivity
QVQLVESGGGLVQAGGSLRLSCSASGSIFDGYAMGWYRQAPGKEREIVAAISKGGTRTYYADSVMGRFTISRDNAKNTVYLQMNSLKPEDTAFYYCNAYYRREPDDGDYDYWGQGSQVTVSS | high polyreactivity
QVQLVESGGGLVQAGGSLRLSCSASGSIFSGNTMGWYRQAPGKERELVAAISGGGSTNYADSVKGRFTISRDNAKNTVYLQMNSLKPEDTAVYYCAKDLSLGASRMDYWGQGTQVTVSS | low polyreactivity

Sequence | polyreactivity (PSR sort gate)
QVQLVESGGGLVQAGGSLRLSCSASGSIIGHNAMGWYRQAPGKEREIVAAITWRGSNTYYADSVKGRFTISRDNAKNTVYLQMNSLKPEDTAVYYCAAEFYYRTQWYYYWGQGTQVTVSS | high polyreactivity
QVQLVESGGGLVQAGGSLRLSCSASGSTFEGYAMGWYRQAPGKERELVAAITSTGSTNYADSVKGRFTISRDNAKNTVYLQMNSLKPEDTAVYYCAGYPGRVYYFLGHDYWVQGTQVTVSS | low polyreactivity
QVQLVESGGGLVQAGGSLRLSCSASGSTFESNAMGWYRQAPGKERELVASISGSGGSTFYADSVKGRFTISRDNAKNTVYLQMISLKPEDTAVYYCAAYKEPYYEEYGYWGQGTQVTVSS | low polyreactivity
QVQLVESGGGLVQAGGSLRLSCSASGSTFGRNSMGRYRQAPGKEREVVAAISWRSTRTYYADSVKGRFTISRDHAKNTVDLQMNSLKPEDNAGYYCAVYYFYPSTNCYHYDYWGQGTQVTVSS | high polyreactivity
QVQLVESGGGLVQAGGSLRLSCSASGSTFGRYAMGWYRQAPGKERELVAAISARGGSTYYADSVKGRFTISRDNAKNTVYLQMNSLKPEDTAVYYCNVDYLLHGGRFDYWGQGTQVTVSS | high polyreactivity
QVQLVESGGGLVQAGGSLRLSCSASGSTFRQYAMGWYRQAPGKERELVAAITWRGDNTYYADSVKGRFTISRDNAKNTVYLQMNSLKPEDTADYYCGARWSYRLYWGYGYWGQGTQVTVSS | low polyreactivity
QVQLVESGGGLVQAGGSLRLSCSASGSTFYPYAMGWYRQAPGKERELVAAISSGGSTSYADSVKGRFTISRDNAKNTVYLQMNSLKPEDTAVYYCNASSPGAVPVYDYDYWGQGTQVTVSS | low polyreactivity
QVQLVESGGGLVQAGGSLRLSCSASGYTFAWYAMGWYRQAPGKERELVAAITVSGGSTYYADSVKGRFTISRDNAKNTVYLQMNSLKPEDTAVYYCAADYAPLDLYQVSTVYSSGDYWGQGTQVTVSS | low polyreactivity
QVQLVESGGGLVQAGGSLRLSCSATGRIFVLYDMGWYRQAPGKERELVAGISGSGGRTYYADSVKGRFTISRDNAKNTVYLQMNSLKAEDTAVYYFNALGYYWYRPYVNSNGGYWGQGTLVTVSS | high polyreactivity
QVQLVESGGGLVQAGGSLRLSCSDSGSTFWLNAMGWYRQPPGKEREYVAAITWSSGSTYYADSVKGSFTISRDNAKNTVYLQMNSLKPEDTAVYYCNADYYFTSYEYEYWGQGTQVTVSS | low polyreactivity
QVQLVESGGGLVQAGGSLRLSCSSSGRIFLNSMGWYRQAPGKEREFVAAITRSADSTYYADSVKGRFTISRDNAKNTVYLQMNSLKPEDTAVYYCNKPFPYYPDGPNGYDYWGHGTQVTVSS | low polyreactivity
QVQLVESGGGLVQAGGSLRLSCTASGTIVPVYAMGWYRQAPGKERELVADITYTTGSTYYAVSVKGRFTISRENAKNSVYLQMNSLKPEDTAVYYCAKDFGFQSDSWGQGTQVTVSS | low polyreactivity
QVQLVESGGGLVQAGGSLRLSCVASGNIFVFYLMGWYRQAPGKERELVASISSTGNTYYADSVKGRFTISRDNAKNTVYLQMNSLKPEDTAVYYCAADSHQNVSGWLRWPRMDYWGQGTQVTVSS | low polyreactivity
QVQLVESGGGLVQAGGSLRLSCVASGRTFFRYAMGWYRQAPGKERELVAVITRGGSTYYADSVKGRFTISRDNAKNTVYLQMNSLKPEDTAVYYCNADGRVQRKYDYWGQGTQVTVSS | high polyreactivity
QVQLVESGGGLVQAGGSLRLSCVASGRTLNYNVMGWYRQAPGKERELVAAISWSGGSTYADSVKGRFTISRDNAKNTVYLQMNSLKPEDTAVYYCNKRFTTRVNRRPVYYWGQGTQVTVSS | low polyreactivity
QVQLVESGGGLVQAGGSLRLSCVASGSIFKQYAMGWYRQAPGKERELVAGISKTGGRTYYADSVKGRFTISRDNAKNTVYLQMNSLKPEDTAVYYCAAYFRSDYGYWGQGTQVTVSS | high polyreactivity
QVQLVESGGGLVQAGGSLRLSCVASGSIFRGNAMGWYRQAPGKERELVASISKGGGSTYYADSVKGRFIISRDNAKNTVYLQIHSLKPEDTAVYYCYKDYDRRDFYYWGLGTQVTVSS | low polyreactivity
QVQLVESGGGLVQAGGSLRLSFAASGFIFWNYPMGWYRQAPGKERELVAAISKRGGSTYYADSVKGRFTISRDNAKHNVYLQMNSLKPEDTAVYYCNAGRTYTALNGDYWGQGTQVTVSS | high polyreactivity
QVQLVESGGGLVQAGGSLRLSFAASGIIFSHNVMGWYRQAPGKERELVAAITYSGGSTYYADSVKGRFTISRDNAKNTVYLLMNSLKPEDTAVYYCNALGVSRRDYDYWGQGTQVTVSS | low polyreactivity
QVQLVESGGGLVQAGGSLRLSFAASGITFDSYAKGWYRQAPGKERELVATISRSGTTTYYADSVKGRFTISRDNAKNTVYLQMNSLKPEDTAVYYCNTLRAYWTYHFYGAVRDGYDYWGQGTQVTVSS | low polyreactivity
QVQLVESGGGLVQAGGSLRLSFAASGITFPYYAMGWYRQAPGKEREFVAAISSSGGSTYYADSVKGRFTISRDNAKKTVYLKMHCLKAEDTEVYYCAAGVYGRSSYSKPVLYEYWGQGTQVTVSS | high polyreactivity
